Assay results taken from patent publication US20130129739A1 (Bayer, published 2013).
Positions count from the first letter of the chain named.

B1: 005-C04-41-2 (Fab, V domains shown)
VH: EVQLLESGGGLVQPGGSLRLSCAASGFTFSSYWNHWVRQAPGKGLEWVSDISRASSYTNYADSVKGRFTISRDNSKNTLYLQMNSLRAEDTAVYYCARGLDARRMDYWGQGTLVTVTS
VL: QSVLTQPPSASGTPGQRVTISCTGSSSNIGYGYVVHWYQQLPGTAPKLLIYRNNQRPSGVPDRFSGSKSGTSASLAISGLRSEDEADYYCAAWDDSLNGWLFGGGTKLTVLG
notes: Maturated 005-C04 variant; Fab in E. coli supernatant, flag-detected
B2: 005-C04-L2-1-3-2 (Fab, V domains shown)
VH: B1 VH with I51M, S52A, A54L
VL: B1 VL with Y31A, Q55V, P57Q
notes: as for B1
B3: 005-C04-36-0 (Fab, V domains shown)
VH: B1 VH with N34W, S52A, S56P
VL: B1 VL with Q55V
notes: as for B1
B4: 005-C04-21-1 (Fab, V domains shown)
VH: B1 VH with S52A, A54L, S56P
VL: B1 VL with Q55V, P57Q
notes: as for B1
B5: 005-C04-2-7 (Fab, V domains shown)
VH: B1 VH with N34W, S56P
VL: B1 VL with S25V, Y31A
notes: as for B1
B6: 005-C04-21-2 (Fab, V domains shown)
VH: B1 VH with I51M, S52A, S56P
VL: B1 VL with Q55V
notes: as for B1
B7: 005-C04-L2-1-4-5 (Fab, V domains shown)
VH: B1 VH with N34W
VL: B1 VL with Q55W
notes: as for B1
B8: 005-C04-47-3 (Fab, V domains shown)
VH: B1 VH with N34W, S56P
VL: B1 VL
notes: as for B1
B9: 005-C04-37-2 (Fab, V domains shown)
VH: B1 VH with N34W, R53S, A54L, N59G
VL: B1 VL with Q55W
notes: as for B1
B10: 005-C04-55-32-0 (Fab, V domains shown)
VH: B1 VH with N34M, R53S, S56P
VL: B1 VL with Y31A
notes: as for B1
B11: 005-C04-20-2 (Fab, V domains shown)
VH: B1 VH with S52A, A54L
VL: B1 VL
notes: as for B1
B12: 005-C04-42-1 (Fab, V domains shown)
VH: B1 VH with A54L
VL: B1 VL with P57Q
notes: as for B1
B13: 005-C04-29-17-3 (Fab, V domains shown)
VH: B1 VH with N34M, R53S
VL: B1 VL with Y31A, N98F
notes: as for B1
B14: 005-C04-L2-1-12-4 (Fab, V domains shown)
VH: B1 VH with S52A, A54L
VL: B1 VL with Y31A, Q55W
notes: as for B1
B15: 005-C04-2-2 (Fab, V domains shown)
VH: B1 VH with I51M, S52A, A54L, S56P
VL: B1 VL with Q55V, P57Q
notes: as for B1
B16: 005-C04-25-6 (Fab, V domains shown)
VH: B1 VH with N34W, I51M, A54L
VL: B1 VL with Q55V, P57Q
notes: as for B1
B17: 005-C04-51-29-0 (Fab, V domains shown)
VH: B1 VH with N34M, S52A, R53S
VL: B1 VL with Y31A
notes: as for B1
B18: 005-C04-44-25-1 (Fab, V domains shown)
VH: B1 VH with R53S
VL: B1 VL with Y31A
notes: as for B1
B19: 005-C04-29-17-2 (Fab, V domains shown)
VH: B1 VH with N34M, R53S
VL: B1 VL with Y31A, N98G
notes: as for B1
B20: 005-C04-11-5 (Fab, V domains shown)
VH: B1 VH with N34W, A54L, S56P
VL: B1 VL with Q55V
notes: as for B1
B21: 005-C04-52-29-0 (Fab, V domains shown)
VH: B1 VH with N34M, R53W
VL: B1 VL with Y31A
notes: as for B1
B22: 005-C04-20-12-7 (Fab, V domains shown)
VH: B1 VH with N34M, R53S
VL: B1 VL with Y31A, P57Q
notes: as for B1
B23: 005-C04-29-17-0 (Fab, V domains shown)
VH: B1 VH with N34M, R53S
VL: B1 VL with Y31A, N98S
notes: as for B1
B24: 005-C04-L2-1-2-3 (Fab, V domains shown)
VH: B1 VH with I51M, S52A, S56P, N59G
VL: B1 VL with Y31A, Q55W
notes: as for B1
B25: 005-C04-L2-1-11-0 (Fab, V domains shown)
VH: B1 VH with N34W, I51M, S52A, A54L
VL: B1 VL with Y31A, Q55V, P57Q
notes: as for B1
B26: 005-C04-45-1 (Fab, V domains shown)
VH: B1 VH
VL: B1 VL with Q55V
notes: as for B1
B27: 005-C04-50-28-3 (Fab, V domains shown)
VH: B1 VH with N34M, I51R, R53S
VL: B1 VL with Y31A
notes: as for B1
B28: 005-C04-18-10-2 (Fab, V domains shown)
VH: B1 VH with N34M, R53S
VL: B1 VL with Y31A, Q55V
notes: as for B1
B29: 005-C04-10-3 (Fab, V domains shown)
VH: B1 VH with N34W, S52A, A54L, S56P
VL: B1 VL with Q55V, P57Q
notes: as for B1
B30: 005-C04-46-1 (Fab, V domains shown)
VH: B1 VH with I51M, A54L, S56P
VL: B1 VL with Q55V, P57Q
notes: as for B1
B31: 005-C04-4-3-7 (Fab, V domains shown)
VH: B1 VH with N34M, R53S
VL: B1 VL
notes: as for B1
B32: 005-C04-53-31-7 (Fab, V domains shown)
VH: B1 VH with N34M, R53S, A54L
VL: B1 VL with Y31A
notes: as for B1
B33: 005-C04-8-6 (Fab, V domains shown)
VH: B1 VH with N34W, I51M
VL: B1 VL with S25Q, Y31A
notes: as for B1
B34: 005-C04-52-29-7 (Fab, V domains shown)
VH: B1 VH with N34M
VL: B1 VL with Y31A
notes: as for B1
B35: 005-C04-19-2 (Fab, V domains shown)
VH: B1 VH with I51M, S52A, A54L, S56P
VL: B1 VL with P57Q
notes: as for B1
B36: 005-C04-18-10-4 (Fab, V domains shown)
VH: B1 VH with N34M, R53S
VL: B1 VL with Y31A, Q55W
notes: as for B1
B37: 005-C04-40-4 (Fab, V domains shown)
VH: B1 VH with I51M, S52A, A54L
VL: B1 VL with Q55V, P57Q
notes: as for B1
B38: 005-C04-29-0 (Fab, V domains shown)
VH: B1 VH with I51M
VL: B1 VL with P57Q
notes: as for B1
B39: 005-C04-29-17-7 (Fab, V domains shown)
VH: B1 VH with N34M, R53S
VL: B1 VL with Y31A, N98L
notes: as for B1
B40: 005-C04-L2-1-11-3 (Fab, V domains shown)
VH: B1 VH with I51M, R53S, A54L
VL: B1 VL with Y31A, Q55V
notes: as for B1
B41: 005-C04-37-7 (Fab, V domains shown)
VH: B1 VH with N34W, R53S, A54L, N59G
VL: B1 VL with Q55W
notes: as for B1
B42: 005-C04-9-2 (Fab, V domains shown)
VH: B1 VH with N34W, S52A
VL: B1 VL with Q55W, P57Q
notes: as for B1
B43: 005-C04-58-33-1 (Fab, V domains shown)
VH: B1 VH with N34M, R53S, N59G
VL: B1 VL with Y31A
notes: as for B1

The binders below were run against T1, extracellular domain of human PRLR (monomeric, soluble) (human, UniProt P16471 25-234) (assay: ELISA: plate coated with human PRLR extracellular domain, Fab-containing E. coli supernatant, anti-flag-HRP, Amplex Red).
T1 construct: also called ECD-PRLR; ECD of PRLR
T1 sequence: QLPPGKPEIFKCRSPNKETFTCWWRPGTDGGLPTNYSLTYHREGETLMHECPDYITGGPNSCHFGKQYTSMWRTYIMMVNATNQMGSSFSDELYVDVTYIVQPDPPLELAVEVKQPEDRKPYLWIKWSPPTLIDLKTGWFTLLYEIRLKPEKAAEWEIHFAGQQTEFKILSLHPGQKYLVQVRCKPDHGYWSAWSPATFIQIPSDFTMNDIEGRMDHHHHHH
Method: 96 well microtiter plates were coated with 1 μg per milliliter of human PRLR. Plates were incubated over night at 4° C. After blocking with PBS buffer containing 3% bovine serum albumin, normalized E. coli-derived supernatants containing the Fab variants were added. Detection of formed complexes occurred via the addition of an anti-flag antibody (Sigma, A8592) labeled with horseradish peroxidase.

Binding result, binds:
B1
B2
B3
B4
B5
B6
B7
B8
B9
B10
B11
B12
B13
B14
B15
B16
B17
B18
B19
B20
B21
B22
B23
B24
B25
B26
B27
B28
B29
B30
B31
B32
B33
B34
B35
B36
B37
B38
B39
B40
B41
B42
B43
